Biological target: RAS-binding domain (RBD) of RAF1, RAF1-RBD (52–131) (Homo sapiens) (UniProt P04049)
Test: ITC; GMPPNP-bound KRAS
Details: domain or fragment

## KRAS (2–169), GMPPNP-bound (from UniProt P01116-2 2-169)
  Kd: 217 nM

Source: PMC6642148
